T1: ALEXA FLUOR 488-labeled mouse GAC D391K (constitutive dimer mutant) (mouse, UniProt D3Z7P3 72-555, ALEXA FLUOR 488 succinimidyl ester covalently attached to a lysine amino group within the glutaminase domain (exact residue not given))
T1 sequence: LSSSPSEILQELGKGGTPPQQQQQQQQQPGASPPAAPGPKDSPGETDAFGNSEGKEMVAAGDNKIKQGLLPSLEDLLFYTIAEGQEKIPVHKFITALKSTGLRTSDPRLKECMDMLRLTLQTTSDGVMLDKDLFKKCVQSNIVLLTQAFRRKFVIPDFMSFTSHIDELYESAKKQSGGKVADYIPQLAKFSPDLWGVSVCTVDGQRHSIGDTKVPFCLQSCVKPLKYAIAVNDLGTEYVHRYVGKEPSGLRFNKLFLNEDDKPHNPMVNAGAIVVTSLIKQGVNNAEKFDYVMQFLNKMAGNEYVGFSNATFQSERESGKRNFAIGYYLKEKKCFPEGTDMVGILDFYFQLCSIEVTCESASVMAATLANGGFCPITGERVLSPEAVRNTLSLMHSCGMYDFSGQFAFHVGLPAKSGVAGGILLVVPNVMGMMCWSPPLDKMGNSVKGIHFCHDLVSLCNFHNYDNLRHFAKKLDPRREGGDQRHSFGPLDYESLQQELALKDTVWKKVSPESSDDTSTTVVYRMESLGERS

T2: ALEXA FLUOR 488-labeled wild type mouse GAC (glutaminase C, residues 72-603) (mouse, UniProt D3Z7P3 72-555, ALEXA FLUOR 488 succinimidyl ester covalently attached to a lysine amino group within the glutaminase domain (exact residue not given))
T2 construct: Recombinant from pET23a with an N-terminal His-tag and thrombin site; The tag was cleaved with thrombin; The oligomeric state (monomer/dimer/tetramer) depends on concentration
T2 sequence: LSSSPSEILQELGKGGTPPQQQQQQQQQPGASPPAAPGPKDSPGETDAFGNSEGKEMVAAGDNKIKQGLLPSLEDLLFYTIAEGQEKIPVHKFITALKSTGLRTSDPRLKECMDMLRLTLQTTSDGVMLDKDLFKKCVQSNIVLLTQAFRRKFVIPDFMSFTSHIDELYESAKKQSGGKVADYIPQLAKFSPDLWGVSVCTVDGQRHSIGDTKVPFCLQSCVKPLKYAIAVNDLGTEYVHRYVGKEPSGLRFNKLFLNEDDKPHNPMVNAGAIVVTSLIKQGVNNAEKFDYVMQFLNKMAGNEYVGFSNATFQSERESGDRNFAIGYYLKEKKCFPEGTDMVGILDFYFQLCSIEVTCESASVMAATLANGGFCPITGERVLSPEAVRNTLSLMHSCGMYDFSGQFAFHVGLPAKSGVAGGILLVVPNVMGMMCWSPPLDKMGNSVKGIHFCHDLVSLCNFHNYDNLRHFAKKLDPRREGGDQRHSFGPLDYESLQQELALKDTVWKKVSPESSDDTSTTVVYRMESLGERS


How the values were obtained:
[1] = biological target: T1, ALEXA FLUOR 488-labeled mouse GAC D391K …; assay: FRET: 5 nM 488-D391K-GAC titrated with QSY 9-D391K-GAC, fit to a simple ligand binding equation; monomer-monomer association to a dimer
From the text: FIGS. 10A-B illustrate measuring of the monomer-monomer binding affinity. […] In FIG. 10B, FRET values from FIG. 10A were plotted in a sigma plot and fit to non-linear regression simple ligand binding equation (line).

[2] = biological target: T2, ALEXA FLUOR 488-labeled wild type mouse …; assay: FRET time course: 200 nM QSY 9-labeled GAC added to 20 nM 488-WT-GAC
Description: Upon elution, light scattering data was collected and then used to calculate the molecular weight and polydispersity for the species eluted (right axis). Reference lines for the molecular weights of the monomer, dimer, and tetramer forms of GAC are included at 58 kD, 116 kD, and 230 kD respectively. […] In FIG. 4F, WT GAC and GAC mutants were titrated and added to an assay of 20 mM glutamine in the absence of phosphate to show no concentration dependent activation was observed of purified GAC mutants.
Fluorescence experiments were performed using a Varian Carry Eclipse Fluorometer in the counting mode. Excitation and emission wavelengths were 490 and 520 nm, respectively. Experiments were all prepared as one-mL samples and stirred continuously at 20° C. in 50 mM Tris-Acetate pH 8.5, 0.1 mM ethylenediaminetetraacetic acid (EDTA). […] Both BPTES and 968 were prepared in DMSO, and appropriate dilutions were made so that less than 2% (v/v) DMSO was added to an experimental sample.

| Binder | Kd [1] [nM] | binding result [2] |
| --- | --- | --- |
| QSY 9-labeled mouse GAC D391K (constitutive dimer mutant) (enzyme, QSY 9 succinimidyl ester covalently attached to a lysine amino group (exact residue not given), also called QSY 9-D391K-GAC; QSY 9-GAC (D391K) dimer mutant) LSSSPSEILQELGKGGTPPQQQQQQQQQPGASPPAAPGPKDSPGETDAFGNSEGKEMVAAGDNKIKQGLLPSLEDLLFYTIAEGQEKIPVHKFITALKSTGLRTSDPRLKECMDMLRLTLQTTSDGVMLDKDLFKKCVQSNIVLLTQAFRRKFVIPDFMSFTSHIDELYESAKKQSGGKVADYIPQLAKFSPDLWGVSVCTVDGQRHSIGDTKVPFCLQSCVKPLKYAIAVNDLGTEYVHRYVGKEPSGLRFNKLFLNEDDKPHNPMVNAGAIVVTSLIKQGVNNAEKFDYVMQFLNKMAGNEYVGFSNATFQSERESGKRNFAIGYYLKEKKCFPEGTDMVGILDFYFQLCSIEVTCESASVMAATLANGGFCPITGERVLSPEAVRNTLSLMHSCGMYDFSGQFAFHVGLPAKSGVAGGILLVVPNVMGMMCWSPPLDKMGNSVKGIHFCHDLVSLCNFHNYDNLRHFAKKLDPRREGGDQRHSFGPLDYESLQQELALKDTVWKKVSPESSDDTSTTVVYRMESLGERS | 2.5 |  |
| QSY 9-labeled mouse GAC K316E/D391K/R459E (constitutive monomer mutant) (enzyme, QSY 9 succinimidyl ester covalently attached to a lysine amino group (exact residue not given), also called QSY 9-K316E-D391K-R459E; QSY 9-GAC (K316E, D391K, R459E) monomer mutant) LSSSPSEILQELGKGGTPPQQQQQQQQQPGASPPAAPGPKDSPGETDAFGNSEGKEMVAAGDNKIKQGLLPSLEDLLFYTIAEGQEKIPVHKFITALKSTGLRTSDPRLKECMDMLRLTLQTTSDGVMLDKDLFKKCVQSNIVLLTQAFRRKFVIPDFMSFTSHIDELYESAKKQSGGKVADYIPQLAKFSPDLWGVSVCTVDGQRHSIGDTKVPFCLQSCVKPLKYAIAVNDLGTEYVHRYVGEEPSGLRFNKLFLNEDDKPHNPMVNAGAIVVTSLIKQGVNNAEKFDYVMQFLNKMAGNEYVGFSNATFQSERESGKRNFAIGYYLKEKKCFPEGTDMVGILDFYFQLCSIEVTCESASVMAATLANGGFCPITGERVLSPEAVENTLSLMHSCGMYDFSGQFAFHVGLPAKSGVAGGILLVVPNVMGMMCWSPPLDKMGNSVKGIHFCHDLVSLCNFHNYDNLRHFAKKLDPRREGGDQRHSFGPLDYESLQQELALKDTVWKKVSPESSDDTSTTVVYRMESLGERS |  | no binding (tested: 200 nM) |

From patent publication US20160002619A1 (CORNELL UNIVERSITY, published 2016)
